# Reference: patent US20250339569A1, “CARBONIC ANHYDRASE IX LIGANDS” (priority 2021, published 2025)
# How the values were obtained:
# [1] = molecular target: murine carbonic anhydrase 9 (CAIX) (mouse) (UniProt Q8VHB5); assay: radioligand saturation binding on CHO-msCAIX cells, 8 h at 37 °C, experiment i
# [2] = molecular target: murine carbonic anhydrase 9 (CAIX) (mouse) (UniProt Q8VHB5); assay: radioligand saturation binding on CHO-msCAIX cells, 8 h at 37 °C, single experiment
# murine carbonic anhydrase 9 (CAIX) (mouse), sequence (Q8VHB5 32-437 limits assumed): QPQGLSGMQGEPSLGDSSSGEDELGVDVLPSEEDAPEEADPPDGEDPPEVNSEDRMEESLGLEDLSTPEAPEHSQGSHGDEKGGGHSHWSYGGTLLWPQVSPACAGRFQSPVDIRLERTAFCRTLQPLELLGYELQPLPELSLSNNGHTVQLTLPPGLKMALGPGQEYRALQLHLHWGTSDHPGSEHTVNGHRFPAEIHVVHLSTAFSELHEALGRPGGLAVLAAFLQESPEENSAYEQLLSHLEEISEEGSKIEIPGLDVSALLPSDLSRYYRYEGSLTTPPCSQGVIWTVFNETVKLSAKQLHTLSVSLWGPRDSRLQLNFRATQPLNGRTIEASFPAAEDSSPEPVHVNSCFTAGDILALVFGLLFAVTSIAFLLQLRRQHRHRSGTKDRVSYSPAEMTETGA
substance,measurement,setting,value
[^111In]In-DPI-4452 (peptide),Bmax,[1],5.6 fmol/µg prot
same,pKd,[1],7.2 -log10(M)
same,Mean Bmax,[2],5.6 fmol/µg prot
